Data as given in publication PMC6682002 (ACS Omega, 2019).
Where a chain is given by its changes, count along the chain named.

B1: rClpP1S98A, catalytic serine mutant of recombinant ClpP1 of Leptospira interrogans (enzyme)
chain: not shown
B2: recombinant ClpP2 (rClpP2) of Leptospira interrogans, LIC11951 (enzyme, UniProt Q72R01 1-197, looked up)
chain: MPETEKIAEVFEELTGSKISKNFLDHRKIFLWGPVTDESSKDLVGKLLYLEMKDPGKKITFYINSPGGVVTSGMTVFDTIKMISSPVHTVCMGMAASMGSVLLAAGTKGERSIWPNGKVMIHQPSIGGQIVAPATDLKIHAEEILKTKTKLNQILADACGHPISKLEEDTDRDYYMDAEEAIKYGIVDKLATKIDFN
B3: rClpP2S97A, catalytic serine mutant of recombinant ClpP2 of Leptospira interrogans (enzyme, UniProt Q72R01 1-197, looked up)
chain: B2 chain with S97A
B4: recombinant ClpP1 (rClpP1) of Leptospira interrogans, LIC11417 (enzyme)
chain: not shown

Key:
[1] = biological target: the molecule itself; assay: native gel or EMSA
[2] = biological target: the molecule itself; assay: cross-linking
[3] = biological target: B4; assay: ITC
[4] = biological target: the molecule itself; assay: SEC
[5] = biological target: B2; assay: ITC

Row | Binder | binding result [1] | stoichiometry N [1] | stoichiometry N [2] | Kd [3] | stoichiometry N [4] | dH [5] | stoichiometry N [5]
1 | B1 | binds |  |  |  |  |  | 
2 | B2 |  | 14 | 7 | 2020 ± 100 nM |  |  | 
3 | B3 | binds |  |  |  |  |  | 
4 | B4 |  | 21 | 7 |  | 14 | -30200 ± 2640 cal^–1 mol^–1 | 0.945 ± 0.05
